Biological target: Fig4-C486S-Citrine (human) (human) (UniProt Q92562)
Assay: co-IP

Sequence of UniProt Q92562 (Q92562 whole entry C486S): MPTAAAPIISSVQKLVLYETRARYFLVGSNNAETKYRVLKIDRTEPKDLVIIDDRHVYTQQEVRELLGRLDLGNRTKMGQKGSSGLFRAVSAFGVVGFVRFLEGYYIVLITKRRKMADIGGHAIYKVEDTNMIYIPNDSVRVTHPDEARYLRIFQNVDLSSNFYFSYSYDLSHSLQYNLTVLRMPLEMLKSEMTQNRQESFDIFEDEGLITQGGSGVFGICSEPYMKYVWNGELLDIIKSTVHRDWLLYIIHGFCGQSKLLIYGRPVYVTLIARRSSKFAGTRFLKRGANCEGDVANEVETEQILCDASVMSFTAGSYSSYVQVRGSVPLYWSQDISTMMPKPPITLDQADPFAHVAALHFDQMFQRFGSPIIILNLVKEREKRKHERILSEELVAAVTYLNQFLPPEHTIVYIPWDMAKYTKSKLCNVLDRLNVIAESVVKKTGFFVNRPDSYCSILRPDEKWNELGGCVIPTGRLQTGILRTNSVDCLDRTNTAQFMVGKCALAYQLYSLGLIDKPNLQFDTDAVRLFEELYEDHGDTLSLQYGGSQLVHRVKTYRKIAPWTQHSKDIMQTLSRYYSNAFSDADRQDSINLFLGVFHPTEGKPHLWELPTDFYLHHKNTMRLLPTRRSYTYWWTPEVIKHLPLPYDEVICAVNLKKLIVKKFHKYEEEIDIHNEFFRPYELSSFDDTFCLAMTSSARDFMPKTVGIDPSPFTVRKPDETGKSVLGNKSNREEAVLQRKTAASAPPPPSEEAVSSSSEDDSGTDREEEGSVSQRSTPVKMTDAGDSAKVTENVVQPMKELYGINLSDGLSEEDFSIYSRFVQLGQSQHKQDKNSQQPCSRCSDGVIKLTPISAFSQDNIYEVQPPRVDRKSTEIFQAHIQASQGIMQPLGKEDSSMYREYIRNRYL

Substance PIKfyve, Q9Y2I7 1-2098 has a fold PIKfyve association over wild-type Fig4 of 9.27 fold.

From paper PMC7525815
